The source of these data is article PMC6270800, “The Effect of Mini-PEG-Based Spacer Length on Binding and Pharmacokinetic Properties of a ^68Ga-Labeled NOTA-Conjugated Antagonistic Analog of Bombesin” (Molecules, 2014).

Data set [1] is classed as physicochemical. The settings on record: pH 7.4. As for the experimental part:
Aliquots of 50 μL were taken from each phase, and their radioactivity was measured in an automated gamma-counter with 3-inch NaI(Tl) detector (1480 WIZARD, Wallac OyTurku, Finland). Each measurement was repeated nine times. The distribution coefficient was calculated as the average log of a ratio of the radioactivity in the octanol and the PBS fractions.

Another data set is described as follows: in vivo. Particulars: female, NMRI, mouse, iv, 45 pmol, total radioactivity.
The next data set has as its system PC-3 cells. The experiment in a line: Cellular uptake and internalization assay, PC-3 cells. The data set is classed as cell-based, human. The settings on record: ^111In-labeled, 24 h continuous incubation, 2 nM, 37 °C. Here is the method: (§1) GRPR expressing human PC cell line PC-3 and human BC cell line BT-474 (ATCC) were cultured in RPMI media complemented with 10% FBS, 2 mM L-glutamine and PEST (penicillin 100 IU/mL) (all from Biochrom AG, Berlin, Germany). This media is referred as complete media in the text. In all in vitro experiments, cells were incubated in complete medium and detached using trypsin-EDTA solution (0.25% trypsin, 0.02% EDTA in buffer; Biochrom AG). All experiments were performed in triplicate and 1 × 10^6 cells/dish were seeded one day before the experiment.
(§2) At predetermined time points, the incubation media was discarded, the cells were washed and the membrane-bound and internalized radioactivity were collected using the method described earlier.

A further data set has as its system BT-474 cells. The experiment in a line: Cellular uptake and internalization assay, BT-474 cells. The data set is classed as cell-based, human. The settings on record: ^111In-labeled; BT474 cells; 24 h continuous incubation, 2 nM, 37 °C. Here is the method: as §1, §2
The next data set deals with PC-3 xenografts. The data set is classed as in vivo, BALB/c nu/nu mice. The settings on record: PC-3 tumors; 2 h p.i. As for the experimental part:
(§3) To study tumor targeting, female BALB/c nu/nu mice bearing PC-3 and BT-474 xenografts (4 mice per data point) were intravenously injected with 45 pmol of ^68Ga-NOTA-PEG3-RM26 (700 kBq, 100 µL in PBS). The mice were euthanized at 2 h p.i. and the organ radioactivity content was measured and evaluated as described above. To test the in vivo binding specificity, a group of animals was co-injected with 20 nmol of unlabeled peptide, and biodistribution was measured at 2 h p.i.

In the next data set the test system is BT-474 xenografts. In kind it is in vivo, BALB/c nu/nu mice. The settings on record: BT-474 tumors; 2 h p.i. Here is the method: as §3

Procedure for in vivo: The biodistribution of ^68Ga-labeled NOTA-PEGn-RM26 was evaluated in female NMRI mice (weight: 30 ± 3 g).
Female NMRI mice (3 mice per data point) were injected with 45 pmol of ^68Ga-NOTA-PEGn-RM26 (350 or 700 kBq, 100 µL in PBS) into the tail vein. The administrated peptide dose was adjusted to 45 pmol by dilution with non-labeled NOTA-PEGn-RM26. The mice were euthanized at 1 and 2 h p.i. by intraperitoneal injection of a Ketalar-Rompun solution (10 mg/mL Ketalar and 1 mg/mL Rompun; 20 µL of solution per gram of body weight). Blood samples were collected by heart puncture. The organs of interest were collected, weighed, and their radioactivity content was measured in the gamma-counter. The organ uptake values are expressed as %ID/g except for gastrointestinal (GI) tract (with content) and carcass in which data are presented as %ID per whole sample.

As for `CC(C)C[C@H](NC(=O)C[C@H](O)[C@H](CC(C)C)NC(=O)[C@H](Cc1c[nH]cn1)NC(=O)CNC(=O)[C@@H](NC(=O)[C@H](C)NC(=O)[C@H](Cc1c[nH]c2ccccc12)NC(=O)[C@H](CCC(N)=O)NC(=O)[C@@H](Cc1ccccc1)NC(=O)COCCOCCNC(=O)CN1CCN(CC(=O)O)CCN(CC(=O)O)CC1)C(C)C)C(N)=O` [PEG2], the “LogD of ^68Ga-NOTA-PEGn-RM26” value in data set [1] is on record as −2.27 ± 0.07. The values for the tissue uptake dose at 1 h in the data set “in vivo” (Uptake in GI (with content)) and in “in vivo” (Uptake in carcass) were 4 ± 2 %ID and 4 ± 1 %ID, respectively. Also, the tissue uptake dose at 2 h in “in vivo” (Uptake in GI (with content)) is 2.88 ± 0.06 %ID; in the data set “in vivo” (Uptake in carcass), 0.9 ± 0.4 %ID.
As usually defined, the logD is the decadic logarithm of the distribution of all forms, ionised or not, between an organic phase and buffer at a given pH. Read a low logD as lower lipophilicity. The compound `CC(C)C[C@H](NC(=O)C[C@H](O)[C@H](CC(C)C)NC(=O)[C@H](Cc1c[nH]cn1)NC(=O)CNC(=O)[C@@H](NC(=O)[C@H](C)NC(=O)[C@H](Cc1c[nH]c2ccccc12)NC(=O)[C@H](CCC(N)=O)NC(=O)[C@@H](Cc1ccccc1)NC(=O)CCOCCOCCOCCNC(=O)CN1CCN(CC(=O)O)CCN(CC(=O)O)CC1)C(C)C)C(N)=O` [PEG3] showed a logD in data set [1] of -2.47 ± 0.06. In addition, the results for the “Internalization rate, % internalized radioactivity from total cell associated” value with PC-3 cells and with BT-474 cells were 31 ± 2% and 32 ± 2%, respectively. Besides, the tissue uptake dose at 1 h in the data set “in vivo” (Uptake in GI (with content)) was determined as 3.7 ± 0.8 %ID; in the data set “in vivo” (Uptake in carcass), 2.1 ± 0.4 %ID. Further, the tissue uptake dose at 2 h in “in vivo” (Uptake in GI (with content)) stood at 2.5 ± 0.7 %ID; in “in vivo” (Uptake in carcass), 0.7 ± 0.1 %ID.
For the compound `CC(C)C[C@H](NC(=O)C[C@H](O)[C@H](CC(C)C)NC(=O)[C@H](Cc1c[nH]cn1)NC(=O)CNC(=O)[C@@H](NC(=O)[C@H](C)NC(=O)[C@H](Cc1c[nH]c2ccccc12)NC(=O)[C@H](CCC(N)=O)NC(=O)[C@@H](Cc1ccccc1)NC(=O)CCOCCOCCOCCOCCNC(=O)CN1CCN(CC(=O)O)CCN(CC(=O)O)CC1)C(C)C)C(N)=O` [PEG4], the logD in data set [1] was -2.49 ± 0.1. In addition, the tissue uptake dose at 1 h in the data set “in vivo” (Uptake in GI (with content)) worked out at 3.5 ± 0.6 %ID; in “in vivo” (Uptake in carcass), 2.3 ± 0.5 %ID. Moreover, the tissue uptake dose at 2 h in the data set “in vivo” (Uptake in GI (with content)) came out at 3.1 ± 0.9 %ID; in “in vivo” (Uptake in carcass) it was 1.2 ± 0.3 %ID.
`CC(C)C[C@H](NC(=O)C[C@H](O)[C@H](CC(C)C)NC(=O)[C@H](Cc1c[nH]cn1)NC(=O)CNC(=O)[C@@H](NC(=O)[C@H](C)NC(=O)[C@H](Cc1c[nH]c2ccccc12)NC(=O)[C@H](CCC(N)=O)NC(=O)[C@@H](Cc1ccccc1)NC(=O)CCOCCOCCOCCOCCOCCOCCNC(=O)CN1CCN(CC(=O)O)CCN(CC(=O)O)CC1)C(C)C)C(N)=O` [PEG6]: in data set [1], the “LogD of ^68Ga-NOTA-PEGn-RM26” value is on record as −2.50 ± 0.09. Also, in the data set on PC-3 cells, the “Internalization rate, % internalized radioactivity from total cell associated” value stood at 35 ± 2%. Besides, in “in vivo” (Uptake in GI (with content)), the tissue uptake dose at 1 h turned out to be 2.8 ± 0.2 %ID and the tissue uptake dose at 2 h stood at 1.8 ± 0.5 %ID. Further, in the data set “in vivo” (Uptake in carcass), the tissue uptake dose at 1 h was 3 ± 1 %ID and the tissue uptake dose at 2 h came to 0.71 ± 0.05 %ID.
Compound `CC(C)C[C@H](NC(=O)C[C@H](O)[C@H](CC(C)C)NC(=O)[C@H](Cc1c[nH]cn1)NC(=O)CNC(=O)[C@@H](NC(=O)[C@H](C)NC(=O)[C@H](Cc1c[nH]c2ccccc12)NC(=O)[C@H](CCC(N)=O)NC(=O)[C@@H](Cc1ccccc1)NC(=O)COCCOCCNC(=O)CN1CCN(CC(=O)O)CCN(CC(=O)O)CC1)C(C)C)C(N)=O` [^68Ga-NOTA-PEG2-RM26, metal not drawn] showed a log distribution coefficient (logD) in data set [1] of -2.27 ± 0.07.
`CC(C)C[C@H](NC(=O)C[C@H](O)[C@H](CC(C)C)NC(=O)[C@H](Cc1c[nH]cn1)NC(=O)CNC(=O)[C@@H](NC(=O)[C@H](C)NC(=O)[C@H](Cc1c[nH]c2ccccc12)NC(=O)[C@H](CCC(N)=O)NC(=O)[C@@H](Cc1ccccc1)NC(=O)CCOCCOCCOCCNC(=O)CN1CCN(CC(=O)O)CCN(CC(=O)O)CC1)C(C)C)C(N)=O` [^68Ga-NOTA-PEG3-RM26, metal not drawn]: the “Decrease of tumor uptake by co-injection of non-labeled peptide” value with PC-3 xenografts was around 5 fold; in the data set with BT-474 xenografts it was “more than 7 fold”.
`CC(C)C[C@H](NC(=O)C[C@H](O)[C@H](CC(C)C)NC(=O)[C@H](Cc1c[nH]cn1)NC(=O)CNC(=O)[C@@H](NC(=O)[C@H](C)NC(=O)[C@H](Cc1c[nH]c2ccccc12)NC(=O)[C@H](CCC(N)=O)NC(=O)[C@@H](Cc1ccccc1)NC(=O)CCOCCOCCOCCOCCOCCOCCNC(=O)CN1CCN(CC(=O)O)CCN(CC(=O)O)CC1)C(C)C)C(N)=O` [^68Ga-NOTA-PEG6-RM26, metal not drawn] showed a logD in data set [1] of -2.5 ± 0.09.
